# Test: soluble on expression in E. coli; label from the status in PepcDB or PDB records
row,Sequence,soluble on expression in E. coli
1,MTNVLWLQGGACSGNTMSFLNGEEPTACDLIANFGIKVLWHPSLGVELGNNLQTLLWDCVLGKTPLDILVFEGSVVNAPNGTGEWNRFADRPMKDWLIDLSQAAKFIVAVGDCATWGGIPAMSPNPSDSKGLQFLKRKEGGFLGKDFVSKAGLPVINIPGCPTHPDWITQILVAIATGRTDDIVLDELHRPQTFFNTYTQTGCTRNIHFAYKATTAEFGQRKGCLFYDLGCRGPMTHSSCNRILWNRISSKTRAGMPCLGCTEPEFPFFDLKPGTVFKTQTVMGVPKEIPPGVNHRDYAVLTVVAKDAAPKWADEDFFTV,not soluble
2,PKDDRLSAWKFWALYAADTGGALRIDAGAVAAVTAGGNSLLAVGITEVIGDFHAGEIVEILGPEGEIIGRGEVAYDSAVLITMLGKQTAQLPEGLQRPVVHADYLSDYASRA,not soluble
3,SNAMSTISRDSCPALRAGVRLQHDRARDQWVLLAPERVVELDDIALVVAQRYDGTQSLAQIAQTLAAEFDADASEIETDVIELTTTLHQKRLLRL,soluble
4,MRGSHHHHHHTDPALRATIWVDADACPNVIKEILYRAAERMQMPLVLVANQSLRVPPSRFIRTLRVAAGFDVADNEIVRQCEAGDLVITADIPLAAEAIEKGAAALNPRGERYTPATIRERLTMRDFMDTLRASGIQTGGPDSLSQRDRQAFAAELEKWWLEVQRSRGGLCGR,soluble
5,SSEADQALVGPKADEPSPPAEEKDEGGGKEAAADAAPGPSASFRLMVTRREPAVKLQYAVSGLEPLSWSEDHRVSVSTARSVAVLELICDVHNPGQDLVIHRTSVPAPLNSCLLKVGSKTEVAECKEKFASSKDPTISQTFMLDRMFNPEGKALPPMRGFKYTSWSPMGCDANGRCLLAALTMDNRLTVQVNLNRLQWVQLVDLTEIYGDRLYETSYRLSKNEAPEGNLGDFAEFQRRHSMQTPVRMEWSSICTTQQVKHNNECRDVSS,soluble
6,RGSHMCDAFVGTWKLVSSENFDDYMKEVGVGFATRKVAGMAKPNMIISVNGDVITIKSESTFKNTEISFILGQEFDEVTADDRKVKSTITLDGGVLVHVQKWDGKSTTIKRKREDDKLVVECVMKGVTSTRVYERA,soluble
7,KRFTADVEQQAEKILSQMTLDEKLSYIGGINWMYTRPLERFGIPRLKMSDGPQGLGTHGPSTAYPCALMLAATWNEQLATEYGSALGKDCRARGVHVLLGPAVNIYRAPMCGRNFEYMGEDPYLTSRMATGYIKGVQGQGVMATIKHFIANNSDYDRDHISSDIDERTLNEIYFPSFRAAVQEAEVGAVMSSYNLLNGIYTTEHPWLLKDVLRQQWGFKGILMSDWGSTHHCIPAVKGGLDLEMPAGSKMQPEELKYYLRTGDITIETIDEKVRHILQTLLAFGFRETQQPDTHIPLKNPQCAQTA,not soluble
8,GAMGKTVSQSQRLEHNWNKFFASFVPNLIKKNPQSKQFDHENIKQCAKDIVKILTTKELKKDSSRAPPDDLTKGKRHKVKEFINSYMDKIILKKKQKKALGLSS,soluble
9,MTLAIEMKDVMKSFNEKTALRNVNIEVKQGEIFGFLGPSGSGKTTTVKILTSQLLHSVGTVRVLGKDITGPSSIDYKRIGILTDNSGLYERLSIYDNLLLFCDLYDCKKERIDEVLAQVNLLEDKKTLVKKLSKGMKQRVTLARAILHKPDILFLDEPTSALDPVNVQNIHKILKDLNREGTTIFLTTHNMDEAETLCNRIAFLCSGEIVALDTPENLRLQYAKDQIQVVLKDKKKETVQKDELGAKRISEWMKKGELLSIHSYEPTLGDIFIEVTGRGL,not soluble
10,LITPQYKSEAKLYILSKETTLTSLADLQIGSQLTQDYKVLVSSRPVMEGVINHLKLDYSYKELAGKLTVENPQNTRILSLTVRDENPYMAKQIVDDIANTASDYIGEIMEMVPPKMIEDGVVASEPYSPSIKRN,not soluble
11,MSLQIKFIDLFSGMSGIRKGFEQACRKQSVACECVFTSEIKPAALEVLKQNYPDEVPYGDITKIETGDIPDFDILLAGFPCQAFSFAGKRLGFEDTRGTLFFDVARILKAKKPKGFILENVEGLVTHDRKDPTQKIGRTLTVILETLETLGYYVSWKVLNAKDFGIPQNRKRIYLTGSLKSKPDLSFETTLSPKLKNILESGLPTESSPFIKKLLKKFPPSELYGKSVKDKRGGKNNIHSWDIELKGTVTEEEKQLLNMLLKERRKKKWASEIGIDWMDGMPLTKAQISTFYKHPNLQNILDSLTDKGYLVLEHPKQKIGGRRIKDESLPKGYNIVSGKKSFEINKILDPNDVAPTLVAMDMEHLFVVDNGGLRTLTGKEGLRLFGYPDDYSFDIPKKDKYDLLGNTVAVPVIKAVSERLLHTLEGHHHHHH,soluble
12,MAEVMSQTLEDAMRRNPHLRKYVEEFRRKYGKIPEFHVQLSRDMKEIPYPNIIYPVGDPIFIHIYGDPNTEKQYIVIEPRIETKEEEEKYKLIRDRMLELAPNKDIPEEQEEFERFLDSLFEEAVL,not soluble
13,MVEVKPIIIDGHPFIAVSVQLPKTNLLAVAGEKGYIMCGALDVALLNEKLRDRGIIAGRAVGVRTIEQLLEAPLESVTVAALELGIEEGMKGREALLKMR,not soluble
14,MNKEALVNRLNASAKRQKADIVIKNGKIMDVYNQEWIYEDIAITDGVIVGLGEYEGENIIDAEGQMIVPGFIDGHVHIESSMVTPIEFAKAVLPHGVTTVVTDPHEIANVSGEKGIEFMLEQARHTPLNIHFMLPSSVPAASFERSGAILKAADLKPFYEEEEVLGLAEVMDYVSVQQAEKDMVQKLLDARVAGKRIDGHLAGLSTDLINIYRTAFVLNDHEVTSKEEALDRIRRGMYVMMREGSVAKNTLNVLPAVNEKNRTPVFFCTDDKHVDDLLSEGSVNHQVKMAIQAGLNPFLAYQLGSLNAAECYGLDTKGAIAPGFDADLLFVSDLENVTVTMTMVKGQTVAEDSKAVYQDHASTAAPDQALLDSVKLAAPLNKQDFHMPIDSEQQINVIQIIPNQLETRLVQVPAPVAREFEPDTELDLLKIAVVERHKGLKETGLGVVKGFGFKSGAIATTISHDSHNIIAVGTNDEDIAAAVNKLQEIGGGLTIIKNGEELHSVPLPIAGLLSDQSAEQVNQSLLTLHDKLSLIGFTGGFNPFLTLSFLALPVIPDIKMTTTGLFDVKSFQHISLQ,not soluble
15,MGSDKIHHHHHHMPATFAHCLLAREAMERFGKSKLFPGVLKTKNHFVVMGATGPDYPYLTDVMKYGVLHIGHNWANRMHYENIDGFILEGIKKLSSMNKTSEEFKNCLAWFSGYVSHVVADSYLHPVVNSTVHGIYLFTNEKHGRCELVQDIYIFKKMTDTDICAAAARDRNSFGYLSILDDCSDPQDLDKIHPHIRVFWSELLKAAHPYASDYFGDLNLDEWHKNYKGRVDFAADSQSIFRHVLDIANAPRYVPWTASSISKEERSKYIDNVETPRGTKQSYDTLFSLVADQIAATWNALFPYIKNGQVPPATLVKDWNLDTGVDESKIDFWKEA,not soluble
16,MSLKELYLIDALNIIFRNYHVMKNYPLLNTQGENVNAFIGFFKTLFFIIKEKNPEHLIITFDSEVPTFRKQKYPSYKATRDLPPDDLIPQIGWIKEGLLKAKIPIFEMEGYEADDLLASFAKKAAKNNYLTYIISPDKDLLQTMSEYVKILKIENNSFIEMDNEYVTKKFGVNSFQIKDYLAIVGDRSDNIPGIKGIGAKGAANLLREFKTLDGIYSNLEIINKKHRELLIKEKENAFLSYELVSLEENLKIPEIENFALKNFSEEIISLFEKHSAIALIKTYKKDILKQEKENADQKSLFKQEPTTNSLDDINTIDTENVKYRSITTKIELDDLIESLKKAKYISIDTETSSLDTYTAKLIGISISFKEFEGYYIPIEAKGKIYIEKNYIIQKFNNLFESNPKIIGQNYKFDYKILKNNGFNPIPPYFDTMIAAYLIDTNSKVSLDFLAEKYLMHKNIKYEDVIQKNDNFANISLEMATSYSSEDADITFRLFNIFTKKLKEDKLDKLMHEIEMPFNKVIIEMEEGHHHHHH,not soluble
17,MADRKSDEGEDEYQHKEQMVTNRTSSFQPKSTEDSISKLAKMRAADRREEFMEERASFSAVKRGYQAGDDEEDDFTAEEEPPAKKPLTVAERLMAAMGHKAGEGLGKHGQGISEPIASSTQRGRTGLGHNAGKATARDFNEVWDETTEEKTVVERVEWMTDIEEEKRAEICEQLKDDKWMVIGKEKRTIDDETKFCSQQSITEMIEAKNVFDLMSDKDLREARTRANPYETIGSAFFQNRAAMKTANMDKIYDWILSRENTENDRFLLKNPLQESQTAENVDRSEDLFYFADVCAGPGGFSEYMLWRKGFYNAKGFGFTLAGKDDFKLFKFTASSQYFFETFYGTKDNGDVMDPVNIDSLEAHISRGTSGLGVHLMMADGGFSVEGQENIQEILSKRLYLCQLLVSLCIVREGGNFFCKLFDIFTPFSVGLIYLMRVCYQSVSLHKPHTSRPANSERYITCKGLRKEFANVVKEYLKRVNRKLDELKNKKSHDDVTDLMPLDVIEADQIFMDEIIRHNEFLANRQTLYLRKYQSFAKNQGQFDKDQGNLRDECLKYWQVPNKQRPRGGDRGNRHDNMQRLNPLQVYGKYCKKVCGESEIGNTFPDFSLNCLDAPLPNIPYEEYRFVPLASSGSPNLLIAAGDSAFIFRSGRFESISADHIRIPENTILLVDWAEEVVRGDGNRIKISSEPQVVRIIDAAVLFGDDVSNLPYEERMKAAEKFVAALKQTNRKVKKGWGHRAEMIKPHLKICAKTYSLAELDEFRSNLEKLEHNRELAVLFTEGEFTFRCQALRFTRIIKQEWRMGWSKSQQKPYAHSQEHQNAGSIPVELWAEKSIYSSFWDSVICLNKDKKKLMEAMEHTKGKCPIPSSIWSWKACILNLFPFFSVRTPYGPEKILNYPEPFEGKPTIAALKAQIENTDLIVKRVRN,not soluble
18,MAQQETPQDKRRRHARVDNVIYANFGAKTTVRTEPEAPEIVESRNFSPVALRIRDLATQEADAGRLKRGRDYARSGHVLNVKFGNSLITADVAGSQNLPFQVSIAFPYLSTDGLSQITQYIAASPDGLNAARHGQLSEDILDLLLGTQVTFRCDCPDHVVCCKHSVAVVTVASEKVEADPLLAFRLRGLDLAQLEQAVTMQARAASTQDLKERFWQGRDLPSLPEPKIAPALDDSDASLLHKAMRLVSYTNIDELRAVSDIEDIYYHLTHEKG,not soluble
19,MPKASQETKGLGSYDPKSATEKKFVITHRIKNISTLNIGNTYTSDVEDHFGFLWHLSYIYDGRFLRTTLNIDVNGRSALWSVGMKVRHMFVTKNGADHFHNSTDHVFSQEHNYGLTAITFFEDIKNKIFDDDMVYVDVEVTITKTSGFDRKKLRNFDTPENDWHVVLVAGGQKFYARTVVICNPNTDICELDVARGTEIVLENEDPLDLQIFLEALHGEDVISDTTLEIILLLAIKYRAIEIFSKCEKWLLEGSKMSPRKQLQMAIRCSFWELEQKCLSELKTKQDIQAVLPANLMSLDPNMVLTLFEKLLTVT,soluble
20,MSPKVTKEHKDKRQAEILEAAKTVFKRKGFELTTMKDVVEESGFSRGGVYLYFSSTEEMFRRIIETGLDEGLRKLDKSAEHQSVWASISSYLDELTEGLRDVADTLAPVQFEYLVTAWRNEERRQYLEKRYDLFVERFSRLLQKGIDQGEFQPVQPLATIAKFFLNMNDGIIQNALYFDEEKADVSGLAESAKLYLKTVLQADEK,soluble
21,MAHHHHHHMQPLLRVPRAVHPHVERPLLGYLPPPVSHFSTKRNNCTGYDHPRGAPPQLNKTYHSQANFRDTKMEFCQVDLDEFCYKQFDSTKKSCSFIPYDKNEFLDKVNELIRQKKIKVVPGYAGFCKHIFVENFTEATVETIEINNKNRDLIKTDYISRRDNELPVLIRWISKKDVKDIIKAKYLDLILYSREQIEKENKETKTVPNRKSNCLYSIICIKPQNVDYELPMTPITMLRNTLISEGGSGINLNRDKYLESVKYWRHHVSIIDN,soluble

# From the DeepSol protein solubility set
